One substance from patent US20250019454A1 can be followed below.

Test [1] concerns the target ΔCRD1-TNFR2 protein (with CRD1 deletion), on CHO-S cells (human) (UniProt P20333). Nature of the test: FACS on CHO-S cells with ΔCRD1-TNFR2, secondary antibody alone (background control).
Test [2] addresses ΔCRD2-TNFR2 protein (with CRD2 deletion), on CHO-S cells (human) (UniProt P20333). In words: FACS on CHO-S cells with ΔCRD2-TNFR2, secondary antibody alone (background control).
Test [3] has as its target ΔCRD3-TNFR2 protein (with CRD3 deletion), on CHO-S cells (human) (UniProt P20333). Nature of the test: FACS on CHO-S cells with ΔCRD3-TNFR2, secondary antibody alone (background control).
The target in test [4] is ΔCRD4-TNFR2 protein (with CRD4 deletion), on CHO-S cells (human) (UniProt P20333). In words: FACS on CHO-S cells with ΔCRD4-TNFR2, secondary antibody alone (background control).
ΔCRD4-TNFR2 protein (with CRD4 deletion), on CHO-S cells (human), sequence (P20333 other isoform, or with tags, fused parts or gaps mutant): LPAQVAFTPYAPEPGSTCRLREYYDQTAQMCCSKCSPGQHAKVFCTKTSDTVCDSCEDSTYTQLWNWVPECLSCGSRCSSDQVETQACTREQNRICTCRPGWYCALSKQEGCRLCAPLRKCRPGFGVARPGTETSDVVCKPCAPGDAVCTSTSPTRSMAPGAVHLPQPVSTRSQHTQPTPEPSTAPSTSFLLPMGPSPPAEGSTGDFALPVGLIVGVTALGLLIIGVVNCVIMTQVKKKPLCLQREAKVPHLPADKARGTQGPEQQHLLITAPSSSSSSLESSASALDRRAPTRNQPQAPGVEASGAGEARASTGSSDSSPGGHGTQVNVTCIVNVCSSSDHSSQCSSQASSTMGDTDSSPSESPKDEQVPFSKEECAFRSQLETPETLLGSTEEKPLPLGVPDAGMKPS

ΔCRD1-TNFR2 protein (with CRD1 deletion), on CHO-S cells (human), sequence (P20333 other isoform, or with tags, fused parts or gaps mutant): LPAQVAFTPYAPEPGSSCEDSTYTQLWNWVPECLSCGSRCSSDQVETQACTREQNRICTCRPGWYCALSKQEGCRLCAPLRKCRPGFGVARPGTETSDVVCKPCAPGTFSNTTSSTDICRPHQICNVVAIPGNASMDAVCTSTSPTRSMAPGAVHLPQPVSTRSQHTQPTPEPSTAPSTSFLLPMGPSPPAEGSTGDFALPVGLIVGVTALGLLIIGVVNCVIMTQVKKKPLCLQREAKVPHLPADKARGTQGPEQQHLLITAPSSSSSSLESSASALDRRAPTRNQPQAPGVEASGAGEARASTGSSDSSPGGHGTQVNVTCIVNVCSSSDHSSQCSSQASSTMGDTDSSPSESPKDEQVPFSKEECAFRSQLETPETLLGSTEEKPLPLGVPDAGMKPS
ΔCRD3-TNFR2 protein (with CRD3 deletion), on CHO-S cells (human), sequence (P20333 other isoform, or with tags, fused parts or gaps mutant): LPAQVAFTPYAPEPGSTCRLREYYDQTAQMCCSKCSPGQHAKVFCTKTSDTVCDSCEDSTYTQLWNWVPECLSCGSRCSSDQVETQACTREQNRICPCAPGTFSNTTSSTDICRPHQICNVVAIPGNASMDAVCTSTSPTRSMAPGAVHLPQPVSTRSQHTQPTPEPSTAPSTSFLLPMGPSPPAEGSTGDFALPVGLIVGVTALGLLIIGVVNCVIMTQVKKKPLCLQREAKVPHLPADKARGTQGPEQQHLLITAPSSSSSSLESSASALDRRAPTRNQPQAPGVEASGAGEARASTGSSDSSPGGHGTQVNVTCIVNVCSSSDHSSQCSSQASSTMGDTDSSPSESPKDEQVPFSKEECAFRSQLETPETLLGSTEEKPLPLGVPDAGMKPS
ΔCRD2-TNFR2 protein (with CRD2 deletion), on CHO-S cells (human), sequence (P20333 other isoform, or with tags, fused parts or gaps mutant): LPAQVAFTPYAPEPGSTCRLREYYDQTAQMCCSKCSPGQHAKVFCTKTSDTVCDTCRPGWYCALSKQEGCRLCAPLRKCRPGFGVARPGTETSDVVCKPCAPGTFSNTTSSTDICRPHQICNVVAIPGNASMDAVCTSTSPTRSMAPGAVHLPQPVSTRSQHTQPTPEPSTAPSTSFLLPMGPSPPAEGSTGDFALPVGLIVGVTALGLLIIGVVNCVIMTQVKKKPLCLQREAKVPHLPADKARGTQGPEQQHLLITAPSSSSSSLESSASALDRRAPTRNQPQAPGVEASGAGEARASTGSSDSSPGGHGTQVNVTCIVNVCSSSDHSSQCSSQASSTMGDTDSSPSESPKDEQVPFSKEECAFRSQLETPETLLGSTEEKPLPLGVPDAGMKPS

Turning to “Secondary antibody (Alexa Fluor 647 AffiniPure F(ab')2 Fragment Goat Anti-Human IgG, Fcγ fragment specific, Jackson ImmunoResearch)”, the positive rate of binding (% of cells) in test [1] came to 10.2%; in test [2], 7.33%; in test [3], 0.62%; in test [4], 1.02%.
